Measured values from article PMC8727025.

Biological target: Arf1 Arf1-del17, lacks the first 17 amino acids (UniProt P84077)
Experiment: GFP-GBF1 beads incubated with purified Arf1-del17-His
Conditions: reference: wild type

Sequence of Arf1 Arf1-del17, lacks the first 17 amino acids (P84077 whole entry, looked up): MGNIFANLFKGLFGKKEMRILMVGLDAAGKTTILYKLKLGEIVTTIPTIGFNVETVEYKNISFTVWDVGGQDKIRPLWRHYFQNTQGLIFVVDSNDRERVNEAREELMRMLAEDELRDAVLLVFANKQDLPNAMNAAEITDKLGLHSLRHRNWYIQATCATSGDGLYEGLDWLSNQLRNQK

other: percent reduction vs wild type (sites Y876) [%]	other: percent reduction vs wild type (sites Y898) [%]	Substance
40	–	GBF1 (from UniProt Q92538-1) Y876F
–	60	GBF1 (from UniProt Q92538-1) Y898F
